Target: PPP1CA(2-330), His6-MBP tag cleaved by TEV protease (human, UniProt P62136 2-330)
Test: SEC

Chain of PPP1CA(2-330), His6-MBP tag cleaved by TEV protease (P62136 2-330): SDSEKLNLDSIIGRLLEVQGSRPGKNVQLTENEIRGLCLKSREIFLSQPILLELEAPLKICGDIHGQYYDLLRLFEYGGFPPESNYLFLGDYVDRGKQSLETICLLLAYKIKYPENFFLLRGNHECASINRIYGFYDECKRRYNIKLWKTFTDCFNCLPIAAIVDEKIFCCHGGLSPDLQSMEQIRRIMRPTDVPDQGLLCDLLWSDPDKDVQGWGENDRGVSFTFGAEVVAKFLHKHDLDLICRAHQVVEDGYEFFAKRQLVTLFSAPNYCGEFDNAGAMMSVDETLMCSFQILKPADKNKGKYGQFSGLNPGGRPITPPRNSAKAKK

B1: SHOC2, native full-length (natural protein, human, UniProt Q9UQ13 1-582, looked up)
chain: MSSSLGKEKDSKEKDPKVPSAKEREKEAKASGGFGKESKEKEPKTKGKDAKDGKKDSSAAQPGVAFSVDNTIKRPNPAPGTRKKSSNAEVIKELNKCREENSMRLDLSKRSIHILPSSIKELTQLTELYLYSNKLQSLPAEVGCLVNLMTLALSENSLTSLPDSLDNLKKLRMLDLRHNKLREIPSVVYRLDSLTTLYLRFNRITTVEKDIKNLSKLSMLSIRENKIKQLPAEIGELCNLITLDVAHNQLEHLPKEIGNCTQITNLDLQHNELLDLPDTIGNLSSLSRLGLRYNRLSAIPRSLAKCSALEELNLENNNISTLPESLLSSLVKLNSLTLARNCFQLYPVGGPSQFSTIYSLNMEHNRINKIPFGIFSRAKVLSKLNMKDNQLTSLPLDFGTWTSMVELNLATNQLTKIPEDVSGLVSLEVLILSNNLLKKLPHGLGNLRKLRELDLEENKLESLPNEIAYLKDLQKLVLTNNQLTTLPRGIGHLTNLTHLGLGENLLTHLPEEIGTLENLEELYLNDNPNLHSLPFELALCSKLSIMSIENCPLSHLPPQIVAGGPSFIIQFLKMQGPYRAMV
- stoichiometry N: 1

Reference: publication PMC8881745 (Protein expression and purification, 2022)
